Common to all, as to type: in vitro ADME, human
Substrate in series [1]: COc1cc(-c2coc3cc(O)c(OC)c(O)c3c2=O)cc(O)c1OC
The series is described as follows: Enzyme kinetics with recombinant CYP2C19. Particulars: other: recombinant CYP2C19, mean ± SE, n = 3; 30.0 °C. The procedure: (§1) A series of concentrations (1–300 μM) of tectorigenin, irigenin, or irisflorentin were added to HLMs or recombinant enzymes. Nonlinear regression was performed on the substrate concentration and generation rate of metabolites to investigate the enzymatic kinetic characteristics of these components in the metabolic system. All experiments were carried out in triplicate.
(§2) A Waters AQUITY UPLC system (Waters, Milford, MA, United States) equipped with a Dikma ODS C18 column (150 × 4.6 mm, 5 μm) was used for separation at 30°C. The binary mobile phase consisted of A (an aqueous solution containing 0.1% acetic acid and 2 mM ammonium acetate) and B (acetonitrile) at a flow rate of 1 mL/min. The elution settings were as follows: 0 → 5 min: 10% B → 20% B; 5 min → 20 min: 20% B → 50% B; 20 min → 21 min: 50% B → 60% B; 21 min → 25 min: 60% B → 90% B; 25 min → 25.1 min 90%–10% B; 25.1 min → 30 min 10% B. Flow rate: 1 mL/min 260 nm was used as the detection wavelength. Calibration standard curves were generated using a reaction mixture containing tectorigenin, irigenin, or irisflorentin at a concentration range of 0.03–10 µM. The concentrations of the metabolites were calculated using a standard curve of the substrates.
(§3) GraphPad Prism software 5.0 was used to perform non-linear fitting between the metabolite generation rate (V) and substrate concentration [S]. The appropriateness of the enzyme kinetic model was determined using R ^2 and the Eadie-Hofstee fit. The maximum metabolic rate (Vmax) and Michaelis constant (Km) were obtained for kinetic processes that conformed to the Michaelis–Menten model (Equation 1). For kinetic processes that conform to the sigmoidal kinetics model (Equation 2), Vmax, Hill coefficient (n), and S50, concentrations at 50% Vmax were obtained. Intrinsic clearance (Clint) was calculated according to Equation 3 (for the Michaelis–Menten model) and Equation 4 (for the sigmoidal kinetics model). All data are expressed as mean ± Standard Error (SE). One - way analysis of variance was used to compare the differences between different groups. […]

Substrate in series [2]: COc1c(O)cc2occ(-c3ccc(O)cc3)c(=O)c2c1O
The series is described as follows: Enzyme kinetics with recombinant CYP2E1. To be noted: other: recombinant CYP2E1, mean ± SE, n = 3; 30.0 °C. The procedure: as §1
A Waters AQUITY UPLC system (Waters, Milford, MA, United States) equipped with a Dikma ODS C18 column (150 × 4.6 mm, 5 μm) was used for separation at 30°C. The binary mobile phase consisted of A (an aqueous solution containing 0.1% acetic acid and 2 mM ammonium acetate) and B (acetonitrile) at a flow rate of 1 mL/min. […] The concentrations of the metabolites were calculated using a standard curve of the substrates.
GraphPad Prism software 5.0 was used to perform non-linear fitting between the metabolite generation rate (V) and substrate concentration [S]. The appropriateness of the enzyme kinetic model was determined using R ^2 and the Eadie-Hofstee fit. […] Intrinsic clearance (Clint) was calculated according to Equation 3 (for the Michaelis–Menten model) and Equation 4 (for the sigmoidal kinetics model). All data are expressed as mean ± Standard Error (SE). […]

Substrate in series [3]: COc1cc(-c2coc3cc4c(c(OC)c3c2=O)OCO4)cc(OC)c1OC
The series is described as follows: Enzyme kinetics with recombinant CYP1A2. To be noted: other: recombinant CYP1A2, sigmoidal kinetics (S50), mean ± SE, n = 3; 30.0 °C. On the procedure: as §1, §2, §3

From article PMC11850249, “Typical and atypical metabolic characteristics of three iridaceae isoflavone components: in vitro and in silico studies” (Frontiers in Pharmacology, 2025) come the findings set out here.

B1: CYP2C19 (Homo sapiens) (protein)
chain: MDPFVVLVLCLSCLLLLSIWRQSSGRGKLPPGPTPLPVIGNILQIDIKDVSKSLTNLSKIYGPVFTLYFGLERMVVLHGYEVVKEALIDLGEEFSGRGHFPLAERANRGFGIVFSNGKRWKEIRRFSLMTLRNFGMGKRSIEDRVQEEARCLVEELRKTKASPCDPTFILGCAPCNVICSIIFQKRFDYKDQQFLNLMEKLNENIRIVSTPWIQICNNFPTIIDYFPGTHNKLLKNLAFMESDILEKVKEHQESMDINNPRDFIDCFLIKMEKEKQNQQSEFTIENLVITAADLLGAGTETTSTTLRYALLLLLKHPEVTAKVQEEIERVIGRNRSPCMQDRGHMPYTDAVVHEVQRYIDLIPTSLPHAVTCDVKFRNYLIPKGTTILTSLTSVLHDNKEFPNPEMFDPRHFLDEGGNFKKSNYFMPFSAGKRICVGEGLARMELFLFLTFILQNFNLKSLIDPKDLDTTPVVNGFASVPPFYQLCFIPV
notes: purchased CYPEX (Dundee, United Kingdom)
Turning to B1, in series [1], the K0.5 was found to be 31.7 ± 2.4 µM; the kcat (in general, the number of substrate molecules converted per active site and unit of time at saturation) was found to be 0.255 ± 0.005 s⁻¹; the kcat/Km (usually the second-order rate constant that governs catalysis at low substrate concentration) turned out to be 8330 M⁻¹ s⁻¹.

B2: CYP2E1 (Homo sapiens) (protein)
chain: MSALGVTVALLVWAAFLLLVSMWRQVHSSWNLPPGPFPLPIIGNLFQLELKNIPKSFTRLAQRFGPVFTLYVGSQRMVVMHGYKAVKEALLDYKDEFSGRGDLPAFHAHRDRGIIFNNGPTWKDIRRFSLTTLRNYGMGKQGNESRIQREAHFLLEALRKTQGQPFDPTFLIGCAPCNVIADILFRKHFDYNDEKFLRLMYLFNENFHLLSTPWLQLYNNFPSFLHYLPGSHRKVIKNVAEVKEYVSERVKEHHQSLDPNCPRDLTDCLLVEMEKEKHSAERLYTMDGITVTVADLFFAGTETTSTTLRYGLLILMKYPEIEEKLHEEIDRVIGPSRIPAIKDRQEMPYMDAVVHEIQRFITLVPSNLPHEATRDTIFRGYLIPKGTVVVPTLDSVLYDNQEFPDPEKFKPEHFLNENGKFKYSDYFKPFSTGKRVCAGEGLARMELFLLLCAILQHFNLKPLVDPKDIDLSPIHIGFGCIPPRYKLCVIPRS
notes: as for B1
In the case of B2, in series [2], the K0.5 was 130.4 ± 18.8 µM and the kcat is 0.427 ± 0.0267 s⁻¹.

B3: CYP1A2 (Homo sapiens) (protein)
chain: MALSQSVPFSATELLLASAIFCLVFWVLKGLRPRVPKGLKSPPEPWGWPLLGHVLTLGKNPHLALSRMSQRYGDVLQIRIGSTPVLVLSRLDTIRQALVRQGDDFKGRPDLYTSTLITDGQSLTFSTDSGPVWAARRRLAQNALNTFSIASDPASSSSCYLEEHVSKEAKALISRLQELMAGPGHFDPYNQVVVSVANVIGAMCFGQHFPESSDEMLSLVKNTHEFVETASSGNPLDFFPILRYLPNPALQRFKAFNQRFLWFLQKTVQEHYQDFDKNSVRDITGALFKHSKKGPRASGNLIPQEKIVNLVNDIFGAGFDTVTTAISWSLMYLVTKPEIQRKIQKELDTVIGRERRPRLSDRPQLPYLEAFILETFRHSSFLPFTIPHSTTRDTTLNGFYIPKKCCVFVNQWQVNHDPELWEDPSEFRPERFLTADGTAINKPLSEKMMLFGMGKRRCIGEVLAKWEIFLFLAILLQQLEFSVPPGVKVDLTPIYGLTMKHARCEHVQARLRFSIN
notes: as for B1
For the protein B3, in series [3], the K0.5 stood at 38.5 ± 2.5 µM, the kcat came out at 1.77 ± 0.0467 s⁻¹ and the kcat/Km was 25000 M⁻¹ s⁻¹.
